The target in this assay is T1, B7330N-myc (myc-tagged B7330N expressed from pcDNA3.1-B7330N-myc in COS-7 cells) (human, UniProt Q8NCL4 1-622).
T1 construct: Expressed by transfection in COS-7 cells and tested in cell lysates; also called GALNT6; not shown: myc-his tag from the pcDNA3.1-myc-his vector (Invitrogen)
T1 sequence: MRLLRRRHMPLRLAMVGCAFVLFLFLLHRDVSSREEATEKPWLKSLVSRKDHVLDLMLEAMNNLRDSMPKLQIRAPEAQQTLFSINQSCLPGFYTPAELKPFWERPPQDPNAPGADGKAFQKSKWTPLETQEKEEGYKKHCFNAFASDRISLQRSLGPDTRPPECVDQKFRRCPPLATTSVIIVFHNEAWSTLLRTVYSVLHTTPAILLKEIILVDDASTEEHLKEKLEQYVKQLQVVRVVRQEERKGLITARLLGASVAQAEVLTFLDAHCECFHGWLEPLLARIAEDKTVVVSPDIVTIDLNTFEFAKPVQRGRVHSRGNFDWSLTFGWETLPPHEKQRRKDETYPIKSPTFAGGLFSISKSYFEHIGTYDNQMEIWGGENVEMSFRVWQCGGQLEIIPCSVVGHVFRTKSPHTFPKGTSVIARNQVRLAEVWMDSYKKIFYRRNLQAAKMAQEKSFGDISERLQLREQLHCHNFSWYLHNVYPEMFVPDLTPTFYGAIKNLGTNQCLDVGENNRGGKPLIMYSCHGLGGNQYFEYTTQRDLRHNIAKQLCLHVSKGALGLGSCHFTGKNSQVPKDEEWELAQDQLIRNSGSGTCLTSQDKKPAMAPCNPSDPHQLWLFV
Nature of the assay: co-immunoprecipitation from co-transfected COS-7 cells, anti-myc pull-down. From the text:
To investigate that hypothesis, we designed two kinds of tagged-B7330N constructs to examine homo-oligomerization. pCAGGS-B7330N-HA and pcDNA3.1-B7330N-myc were co-transfected into COS-7 cells and co-immunoprecipitated using anti-HA or anti-myc antibody, respectively.

B1: B7330N-HA (HA-tagged B7330N expressed from pCAGGS-B7330N-HA in COS-7 cells) (enzyme)
chain: T1 sequence
modifications: N-glycosylated at Asn-476
notes: Expressed by transfection in COS-7 cells and tested in cell lysates; also called GALNT6; UDP-N-acetyl-alpha-D-galactosamine: polypeptide N-acetylgalactosaminyltransferase 6; not shown: C-terminal HA tag from the pCAGGS-HA vector
Regarding B1, the binding result is given as “binds”.

The values above are taken from patent US20090202543A1 (ONCOTHERAPY SCIENCE, published 2009).
